Laboratory results from the supplement of paper PMC9170038.

Tested on: MS2 coat protein
Experiment: apparent KD of MS2 coat protein; higher = weaker reporter binding
Settings: Eterna round: R107
Method in brief: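 Titrations with SNAP-549-labelled MS2 coat protein ran in twofold steps from 0.7 or 1.5 nM to 3 µM, each step taking 0.8–1.5 h at the start and 10–20 min toward the end. The targets were designed RNA switches transcribed on-chip from Illumina sequencing clusters, held in 100 mM Tris-HCl pH 7.5, 80 mM KCl, 4 mM MgCl2, without or with constant ligand. Apparent KD was taken per design as the median of normalised cluster binding-curve fits.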

[1] = input ligand: theophylline 20 uM
[2] = input ligand: tryptophan 2.4 mM
[3] = input ligand: theophylline 2 mM

Row | Sequence | apparent KD of MS2 coat protein (input ligand: arginine 13.2 mM) | apparent KD of MS2 coat protein [1] | apparent KD of MS2 coat protein [2] | apparent KD of MS2 coat protein (input ligand: none) | apparent KD of MS2 coat protein [3]
1 | UGCGAUUGCUCAGAUACCAGACAUGAGGAUCACCCAUGUACCAAGGUAAAGAAAUAACGUGUCCCUUGGCAGCUGAGCAAUCGCU [MAT - Exclusion Theophlline B - Mod of Eli - D9] | 11.9 nM | 14 nM | 11.3 nM | – | –
2 | UGUACCAUGUCGGCCGCCACUCAUGAUAAACAAGAGGAUCACCCUUGUAGCGUCAAAGACGCUAUGAGGACCGGGACAUGGUACU [TryBS Zipper 2] | 29.5 nM | 41.2 nM | 15.5 nM | 29.7 nM | 43.9 nM
3 | ACACAUGAGGAUCACCCAUGUGCAAUAGAUACCAGUGACGCGGUGCACCCUUGGCAGCUGUUGCUGAGUGAUGGUUCCCUCGGAA [Exclusion Theophylline A GF 6] | 17.9 nM | 57.6 nM | 42.1 nM | – | –
4 | UAAACUACACAUGAGGAUCACCCAUGUGGCCGAGGACCGGUACGGCCGCCACUCGUGUGUUAAUAAAAGAACUGCAAGAUUCUUU [Issoraor] | 78.3 nM | 220 nM | – | – | 396 nM
5 | CGCUACAUAGCGGCCGCCACUGUCAUGGCUACGAUAGGUCACUCGUACAUGAGGAUCACCCAUGUCAGGACCGGGCUAUCCUCGC [theeternabot_exclusion_MS2_Trp_B_20] | 64.9 nM | 112 nM | – | – | 112 nM
6 | AAACGCCACGGAAGGAGCGACAUGAGGAUCACCCAUGUAGAAGUGGCGGAUGCACCCUCCUGUCAGGUAGGUCGCCGUGCGCCAA [XArg-B24] | 17.1 nM | 39 nM | 22.4 nM | 21.2 nM | 29.7 nM
7 | GCCAUCGGCGGAAGCCGAUGGUAUACGGAAGGAGCGCACGAAAGUGCAGGUAGGUCGCUGAACAUGAGGAUCACCCAUGUAAUAA [#28 Same State - Arginine A] | 17.6 nM | 36.4 nM | 20.3 nM | 18.8 nM | 24.1 nM
8 | GCUUGGGUGGCCCAGCCCUGGCAGGGCGAUACCAGCACGGUAACGUGCCCUUGGCAGCGCACAUGAGGAUCACCCAUGUGGUGCG [#1 Exclusion - Theophylline A Attempt #27 (HarryS)] | 52.8 nM | 161 nM | 112 nM | – | –
9 | ACCUGUACGAAAAGUGCAGGACAGGAAAAUCGAGGACCGGUACGGCCGCCACUCGUAUAAACAAGUGGAUCACCCUUGUAACCUG [TrypAS 1 #AlternativeMS2 #Zipper] | 458 nM | 1060 nM | 1610 nM | 664 nM | 1760 nM
10 | GGGAUAUCCCGAAGGAGCGCGAGAUGCUGUGCUGCAUUCCUCACAUGAGGAUCACCCAUGUCGCAGGUAGGUCGCGGGAUAUCCC [#16 Exclusion - Arginine B] | 151 nM | 452 nM | 485 nM | 450 nM | 553 nM
11 | AGAGUCUAGUCGGCCGCCACUCAUGUCCAAUGGACAUGAGGAUCACCCAUGUACCAAAGGUACAUGAGGACCGGGACUGGACUCA [Omei Tryp B SS C v4] | 27.2 nM | 209 nM | – | – | 83.3 nM
12 | GGGUGGUAGGCGGCCGCCACUGAUUUUUAUAUAUAUAUGACAUGAGGAUCACCCAUGUAGAUAUGCAGGACCGGGCCUGUUGUUU [aaaN] | 22.4 nM | 28.2 nM | 28.3 nM | 22.2 nM | 22 nM
13 | CGAUGCGCAUUAUCCCACUGGUAUGAGUCUCGAGGACCGGUACGGCCGCCACUCGCUACCGUACAUGAGGAUCACCCAUGUAUUA [theeternabot_exclusion_MS2_Trp_A_13] | 23.7 nM | 38.8 nM | – | – | 35.9 nM
14 | ACGAUACGACAUGAGGAUCACCCAUGUGAUACCAGCGUGGAAACACGCCCUUGGCAGCACAAAUACUCCAGAAACGUAUCGAAAA [MAT - Exclusion Theophlline A - Mod of Eli - D7] | 93.3 nM | 258 nM | 285 nM | – | –
15 | UAUCCACAUGAGGAUCACCCAUGUAAGGAAGGAGCGGUGAAUGAACCAGGUAGGUCGCCUUGGUGAGGAUCAUCUAUGGAUUCGU [Exclusion - Arginine A (Freestyle 10)] | 28 nM | 65.9 nM | 41.8 nM | 36.8 nM | 43.5 nM
16 | ACGAACGAUAGUGAUACCAGACGUACAUGAGGAUCACCCAUGUUUUGGGUAAGGUUAAUAGUCCCUUGGCAGCACUUUAAGUUCG [JR_ExcTheophyB_Sub007] | 44.6 nM | 80.8 nM | 50.9 nM | – | –
17 | GCAUCCUAGUCGGCCGCCACUGCAACAUGAGGAUCACCCAUGUCUGUAUGUGAUCCAUGCAGUAGCAGGACCGGGACUAGGAUGC [(T1)-(M1)-(M2)-(T)''-(M)'-(T)'-(T2)_Design3_2/18/17] | 237 nM | 467 nM | – | – | 833 nM
18 | GGAUAGGACAGAAGGAGCGACAUGCGACGAAAGUCGAAAAGAUCACAUGAGGAUCACCCAUGUCAGGUAGGUCGCUGUCCUAUCG [ArgXB 10 #Zipper #MS2Left #StaticStem #Blueprint] | 119 nM | 115 nM | 89.9 nM | 127 nM | 154 nM

Row | Sequence | apparent KD of MS2 coat protein (input ligand: arginine 13.2 mM) | apparent KD of MS2 coat protein [1] | apparent KD of MS2 coat protein [2] | apparent KD of MS2 coat protein (input ligand: none) | apparent KD of MS2 coat protein [3]
19 | UCGCUCUGGGUGAGAUCCGGAGAUGUGGAAGGAGCGCUGGAAACAGCAGGUAGGUCGCCAACGGACAUGAGGAUCACCCAUGUAC [Same State - Arginine A (Freestyle 19)] | 41.4 nM | 75.3 nM | 81.5 nM | 44.4 nM | 31.9 nM
20 | AAAAUCCUAUCUGAGGAUCACCCAGGUGAAGGAGCGCCCGAAAGGGCAGGUAGGUCGCACCUGAGGAUCACCCUGGUAACCUAAA [ArgEX 10 #DoubleMS2 #OpenEnded #AlternativeMS2] | 85.7 nM | 105 nM | 88.5 nM | 102 nM | 123 nM
21 | AGCUCGCAUCCUCUAGCGUCAAAGACGCCUCGAGGACCGGUACGGCCGCCACUCGAGAUGAGGAUCACCCAUCUCAAAGCGAGCA [TrypAX 14 #SwitchBubble #AlternativeMS2 #MS2Late #CuTurnoff] | 71.6 nM | 197 nM | 156 nM | – | 254 nM
22 | GCCUCCAGCCGAAGGAGCGCUAGAAGGUGACAUGAGGAUCACCCAUGUGUGUGAUGUGGCUAGCAGGUAGGUCGCGGAGGAGGUU [Exclusion - Arginine B (Freestyle 20)] | 62.7 nM | 133 nM | 89.8 nM | 68.5 nM | 120 nM
23 | GCACCAGGUACGGAUACCAGCUGCCCGAGAUACAUGAGGAUCACCCAUGUGACCUGAUUUAGCCCUUGGCAGCUGUACCUGGUGC [SSThB NP+V+V2 #1] | 148 nM | 189 nM | 285 nM | 333 nM | 55.9 nM
24 | AUACCACCUUCGGCCGCCACUAUGUAUGGGUUCCCAACGUUGAAGGACAUGAGGAUCACCCAUGUUAGGACCGGGAAAAGUGCCU [theeternabot_exclusion_MS2_Trp_B_17] | 45.3 nM | 106 nM | – | – | 103 nM
25 | AACAUGAGCACGGCCGCCACUCCAUGAACAUGAGGAUCACCCAUACACAUGAGGAUCACCCAUGUGAGGACCGGGUGUCCAUGUG [Exclusion Tryptophan B 2] | 12.6 nM | 18.7 nM | – | – | 16.5 nM
26 | AAAAUAAAUAAAACACGUAACAUGAAGGAUACCAGACAGGAAACUGUCCCUUGGCAGCCUCUACAUGAGGAUCACCCAUGUCGUG [Mat - Same State Theophlline A - Mod of Eli - D17] | 112 nM | 128 nM | 266 nM | – | –
27 | AGUAACAUGAGGAUCACCCAUGUAUGAGAAGGAGCGUGUUUUAACACAGGUAGGUCGCUCAAUAUUAUUUACUAGCGAAAGCUAG [JR_SSArginiA_Sub007] | 22 nM | 23.3 nM | 18 nM | 14.6 nM | 17.9 nM
28 | GGCUAGGCUAGCGAUACCAGCAACCAACAUGAUCUGAGGAUCACCCAGGUAGUUGGACGUUGCCCUUGGCAGCGCUAGCCUAGCC [SSThB NP+V+V2 #12 Diff Apt, Same Structure] | 15.4 nM | 16 nM | 15.5 nM | 14.3 nM | 12.2 nM
29 | GGUGGCUGGACUGAUACCAGCCACCACCGAUAGACCACAUGAGGAUCACCCAUGUUGGGUGGCCCUUGGCAGCAGUCCAGCUGCC [#1 Same State - Theophylline B Attempt #10 (HarryS)] | 152 nM | 374 nM | 873 nM | 607 nM | 2990 nM
30 | UGUAUGUGAUCUGAUACCAGCCUCAUAACUUGAGGAUCACCCAAGUGGAGCGGAAACGCUGGCCCUUGGCAGCAGAUCGCAUACU [TheoBS 2 #AlternativeMS2] | 205 nM | 200 nM | 556 nM | 460 nM | 15.3 nM
31 | ACGUGCAGCAGAAGGAGCGUCUUAAUUCUACAUGAGGAUCACCCAUGUUUACAUUGGAUAUGACAGGUAGGUCGCUGAAGUACGA [#05 Same State - Arginine B] | 36.2 nM | 41.7 nM | 18 nM | 30 nM | 37.2 nM
32 | AGAUGUAGCGGAAGGAGCGACAAGAGGAUCACCCUUGUCUCCCGUUGUGGGAGUUCCUUAGGUCAGGUAGGUCGCCGUUACGUCA [Omei Arg B SS B v4] | 22.7 nM | 38.4 nM | 25 nM | 22.9 nM | 28.6 nM
33 | GGAUAGAUAGGAGAUACCAGACACAUUAACAUGAGGAUCACCCAUGUGUCUGCACUAAGUGUCCCUUGGCAGCUCGGAGAUCUGA [Same State - Theophylline B] | 34.2 nM | 44.2 nM | 31.9 nM | 45.9 nM | 30.6 nM
34 | CCCUGGGUGGGAAGGAGCGCAUAGUGAACAUGAGGAUCACCCAUGUGUAGACGUGAGUCACUGCAGGUAGGUCGCCCACCCAGGG [SS-ArgB23] | 19.5 nM | 47.3 nM | 29.5 nM | 27.5 nM | 46.5 nM
35 | ACCUGCGUUUGUUUCUUUCUGACGCAGGUUCGAGGACCGGUACGGCCGCCACUCGGACAUGAGGAUCACCCAUGUUUGACAUGGG [#02 Exclusion Tryptophan A] | 229 nM | 238 nM | – | – | 281 nM
36 | AUAUAUACAUGAGGAUCACCCAUGUUAUUUCGAGGACCGGUACGGCCGCCACUCGAUAGAGUAGAAGUAAAUUUUGUUACAUGUA [JR_SSTryptoA_Sub010] | 10.4 nM | 13.7 nM | – | – | 10.8 nM
